Measurements published in article PMC4387078.

Tests used:
[1] = substrate: Oc1ccc(O)cc1; assay: spectrophotometric laccase assay, product formation; type: biochemical, Trametes versicolor; settings: pH for this enzyme not stated
[2] = substrate: NCCc1ccc(O)c(O)c1; assay: as above; type: biochemical, Trametes versicolor; settings: pH for this enzyme not stated
purified protein [3] = substrate: O=C1O[C@H]([C@@H](O)CO)C(O)=C1O; assay: purified protein; settings: 0.1 M sodium phosphate
[4] = substrate: Oc1ccc(O)cc1; assay: spectrophotometric laccase assay, product formation; type: biochemical, Drosophila melanogaster; settings: pH 7.0
[5] = substrate: NCCc1ccc(O)c(O)c1; assay: as above; type: biochemical, Drosophila melanogaster; settings: pH 7.0
purified protein [6] = substrate: O=C1O[C@H]([C@@H](O)CO)C(O)=C1O; assay: purified protein; type: biochemical, Anopheles gambiae; settings: 0.1 M sodium phosphate, pH 7.0, allosteric sigmoidal fit
[7] = substrate: Oc1ccc(O)cc1; assay: spectrophotometric laccase assay, product formation; type: biochemical, Anopheles gambiae; settings: pH 7.0
[8] = substrate: NCCc1ccc(O)c(O)c1; assay: as above; type: biochemical, Anopheles gambiae; settings: pH 7.0
[9] = pH 7.0, allosteric sigmoidal fit

B1: TvLac-α (Trametes versicolor) (protein)
chain: AIGPVASLVVANAPVSPDGFLRDAIVVNGVVPSPLITGKKGDRFQLNVDDTLTNHSMLKSTSIHWHGFFQAGTNWADGPAFVNQCPIASGHSFLYDFHVPDQAGTFWYHSHLSTQYCDGLRGPFVVYDPKDPHASRYDVDNESTVITLTDWYHTAARLGPRFPLGADATLINGLGRSASTPTAALAVINVQHGKRYRFRLVSISCDPNYTFSIDGHNLTVIEVDGINSQPLLVDSIQIFAAQRYSFVLNANQTVGNYWVRANPNFGTVGFAGGINSAILRYQGAPVAEPTTTQTTSVIPLIETNLHPLARMPVPGSPTPGGVDKALNLAFNFNGTNFFINNATFTPPTVPVLLQILSGAQTAQDLLPAGSVYPLPAHSTIEITLPATALAPGAPHPFHLHGHAFAVVRSAGSTTYNYNDPIFRDVVSTGTPAAGDNVTIRFQTDNPGPWFLHCHIDFHLDAGFAIVFAEDVADVKAANPVPKAWSDLCPIYDGLSEANQ
B1 gave a Km [1] of 0.038 ± 0.006 mM, a kcat [1] of 32.7 ± 1.22 s⁻¹ and a kcat/Km [1] of 861000 M⁻¹ s⁻¹. For the same protein, the Km [2] was 0.055 ± 0.005 mM, the kcat [2] was 11.5 ± 0.18 s⁻¹ and the kcat/Km [2] was 210000 M⁻¹ s⁻¹.

B2: DmMCO1T (Drosophila melanogaster) (protein)
chain: DIWTAEWYRNHPCNRDCQVGAEPMTCRYKFVVEWYQTFSKACYDCPRNLTDCSRPHCVMGDGLERSITVVNRMMPGPAIEVCEGDEIVVDVKNHLLGESTSIHWHGLHQKKTPYMDGVPHITQCPITPHATFRYSFPADLSGTHFWHSHTGMQRGDGVFGALIIRKPKTAEPHGGLYDFDLSEHVMIVQDWIHDTGASIFSYHHHSRGDNKPHNLLVNGKGRYYNRIWAEAKQAHRRAEERTTQPVEPLPKSQVDFVQTLPRQARLAKTNTTKLFPVNSRQKRGNLNEIPLELVPHQIYTVRRGFRYRFRIINAEYLNCPIVVSIDGHNLTAINSDGFDIEAMDVGSIVTYSGERFDFVLNANLEVGNYWIRLKGLMDCSEVFTSAFQVAILRYEGAPDEEPTAELSYGHKAEGIELNVMNRGPGYPDTKTVAEMRALPIYDHVSGIDHDTLKPEADYKFFIYYDFYTKNNPDFHDKDLYAMDMEMTQQNRLYTPQLNHITLNFPSLALLPSRSQLKDSDFCNETSLMDQGIDCRQEFCKCHHVLQVPLGAVVEMIIVDEGFQYYANHPFHLHGNAFRVMGLERLGENVTVEMIKQLDQFNLLKRNLDNPPVKDTVTIPDGGYTIIRFEASNPGYWLFHCHIEFHAEIGMALVFKVGNDDQMVPVPENFPTCGDYNPDLRSDGGTTEDSGSSKPITATPPNTGGGGSG
In the case of B2, the K0.5 (purified protein [3]; [9]) is reported as 0.29 ± 0.05 mM, the kcat (purified protein [3]; [9]) is reported as 42.8 ± 5.25 s⁻¹ and the kcat/Km (purified protein [3]; [9]) is reported as 147000 M⁻¹ s⁻¹. It also gave a Km [4] of 14.4 ± 0.91 mM, a kcat [4] of 1.03 ± 0.035 s⁻¹ and a kcat/Km [4] of 66.7 M⁻¹ s⁻¹. It also gave a Km [5] of 7.0 ± 0.93 mM, a kcat [5] of 0.317 ± 0.0183 s⁻¹ and a kcat/Km [5] of 50 M⁻¹ s⁻¹.

B3: AgMCO1T (Anopheles gambiae) (protein)
chain: VEPEEGVDFYEELSYDNHPCKRACTLGRKPETCYYRFRLEWYRTLSKACYNCPYNATDCERPHCITGDGVRRNVAVINRMMPGPAIEVCENDIIVVDVENHLMGESTTIHWHGLHQRRTPYMDGVPHVSQCPISPGTTFRYTFRADNPGTHFWHSHTGMQRGDGAFGALIIRKDNDIQELLYDHDLSEHVITVQDWGHEQGVSLFASHHHSTGDNKPPNLLINGRGKYFQRFAKTTPLTTTTTSTEEPALEPETIMAVEPESTTLMEELPTTTVPITDAITPDDTELLQASSNTNLKTVLRAEEVRHRTKRQSRTVNFNAIVVPESKHIPLKVFHVDKGRRYRFRLINAEFLNCPVELSIENHNLTVIASDGFGIQPLEDLGSFVSYAGERFDFIVKANQPIGNYLIRFRGLMDCDERFTSAYQFAVLRYRGAPTDTEYESWPPYDYEAPGVQLNSLNRGPGAENVITIAETSALDQEDLLLLRNETDYKFYVYYDFYGKDNPHFHVPSLYGFQQVVNNTNRLYTPQLNHISMRMPPVPFLPGKDVLDESQFCNETSVRDRNCRQEFCECSHVLQIPLHATVEMVMIDEGFTFDANHPFHLHGHAFRVVGMDRVSRNTTIEDIRRMDEEGRLPRRLKRAPIKDTVTIPDGGYTIIRFIANNPGYWLFHCHIEFHAEIGMSLVLKVGDSSEMLPAPANFPTCYDFKPKLGQLGSGGA
For B3, the K0.5 (purified protein [6]) was 0.12 ± 0.02 mM, the kcat (purified protein [6]) was 15.3 ± 1.4 s⁻¹ and the kcat/Km (purified protein [6]) was 126000 M⁻¹ s⁻¹. For the same protein, the Km [7] was 31.9 ± 3.75 mM, the kcat [7] was 1.58 ± 0.13 s⁻¹ and the kcat/Km [7] was 50 M⁻¹ s⁻¹. For the same protein, the Km [8] was 35.2 ± 3.59 mM, the kcat [8] was 0.258 ± 0.0183 s⁻¹ and the kcat/Km [8] was 6.67 M⁻¹ s⁻¹.

B4: AgMCO3 (Anopheles gambiae) (protein)
chain: QSWLNTLLEQSNGTLDVSTFPGEQCLRECDNTQPRICHFSWTMEHYHVMGPACRDCAKGNHTDCYHPACITADGVERGVMSLNRKIPGPTISVCRHDLIVVDITNAMAGTSAAIHWHGLHQRATPYMDGVPFITQCPIGFGNTFRYAFLATEPGTQFYHSHSGHHKVNGHYGALIVREPKRVDPNGDLYHYDTPAHVILGSDWMHIDGEMFMPGLPSAGGIMPINLLINGKGTYHDPKKNETTQTPLEVYTVRRGARFRFRFINAASHVCPLQLQIEDHMMEVIASDSFHLQPRKVDTLVSTSGERYDFVLEANGVKDTYWVRLRSLGPCADLQLEQFAVLRYTTGPFINDAFPTGAPPTYEEPFRNVATANHPNATCGRPEFGDYCITDFQAYDTDEDVINGVPDHQLTFGFYNYPVSFESMFESNRYEHYMNIYGSVMMQGAINNISLAYPPFSLLTQPEKIRDDTFCDEDNRPDSCSDRQLCTCTHRVKINLGDIVELYILDLTPSVNDLNHPFHLHGYQMFVMEMSQDRRVPITLEIAQNIARQRLLSRNTVALPPRKDTVSIPSRGYARVRFRADNPGFWLMHCHYEWHTAVGMALVLQVGETSEMVKAPADFPKCDSYTPAVGHLLQGSL
B4 was tested, and the K0.5 (purified protein [3]; pH 7.0, Michaelis-Menten fit) was 0.64 ± 0.26 mM, the kcat (purified protein [3]; pH 7.0, Michaelis-Menten fit) was 2.47 s⁻¹ and the kcat/Km (purified protein [3]; pH 7.0, Michaelis-Menten fit) was 3880 M⁻¹ s⁻¹.
